1 substance from patent publication US20150232576 can be followed below.

For this data set, the target named is T1, endothelial nitric oxide synthase (eNOS), purified, unphosphorylated (UniProt P29473).
T1 sequence: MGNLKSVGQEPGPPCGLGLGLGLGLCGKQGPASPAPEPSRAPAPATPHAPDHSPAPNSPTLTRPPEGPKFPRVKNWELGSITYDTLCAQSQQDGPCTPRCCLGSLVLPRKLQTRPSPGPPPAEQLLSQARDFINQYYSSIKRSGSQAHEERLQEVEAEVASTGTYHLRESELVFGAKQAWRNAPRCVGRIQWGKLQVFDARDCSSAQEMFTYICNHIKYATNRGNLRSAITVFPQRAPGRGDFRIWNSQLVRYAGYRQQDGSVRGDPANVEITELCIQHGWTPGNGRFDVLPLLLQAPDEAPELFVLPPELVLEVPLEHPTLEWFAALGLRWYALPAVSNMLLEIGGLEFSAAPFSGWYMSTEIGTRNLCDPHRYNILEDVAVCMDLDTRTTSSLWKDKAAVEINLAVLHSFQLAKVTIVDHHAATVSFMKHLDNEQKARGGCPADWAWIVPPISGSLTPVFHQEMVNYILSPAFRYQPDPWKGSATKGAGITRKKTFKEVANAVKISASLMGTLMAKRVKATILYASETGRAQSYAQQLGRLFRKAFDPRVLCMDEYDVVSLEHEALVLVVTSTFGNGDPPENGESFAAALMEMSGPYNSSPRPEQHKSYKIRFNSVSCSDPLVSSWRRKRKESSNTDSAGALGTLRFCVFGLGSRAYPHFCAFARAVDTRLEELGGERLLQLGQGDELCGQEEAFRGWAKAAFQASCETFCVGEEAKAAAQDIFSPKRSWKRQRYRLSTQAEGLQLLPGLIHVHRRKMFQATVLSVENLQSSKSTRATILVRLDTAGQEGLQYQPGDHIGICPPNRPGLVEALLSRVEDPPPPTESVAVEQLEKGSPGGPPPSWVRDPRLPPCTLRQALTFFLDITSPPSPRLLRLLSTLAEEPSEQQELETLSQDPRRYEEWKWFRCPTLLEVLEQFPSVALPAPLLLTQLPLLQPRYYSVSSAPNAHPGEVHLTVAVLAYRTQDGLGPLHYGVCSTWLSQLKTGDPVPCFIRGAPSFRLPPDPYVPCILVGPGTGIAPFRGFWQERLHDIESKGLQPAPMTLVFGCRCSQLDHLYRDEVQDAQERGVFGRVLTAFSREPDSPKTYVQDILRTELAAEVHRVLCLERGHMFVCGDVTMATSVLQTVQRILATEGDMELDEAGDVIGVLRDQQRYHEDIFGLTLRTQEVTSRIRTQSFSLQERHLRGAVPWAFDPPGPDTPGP

Regarding Phosphorylated His-p38 (p38 MAP kinase), the “NO production (hemoglobin capture assay)” value is “Weak inhibition of NO formation by 1 µM p38 in the presence of 0.6 µM CaM was observed; NO production was reduced by an average of 30%”.
